Measured values as given in article PMC1373645, “Lactate production yield from engineered yeasts is dependent from the host background, the lactate dehydrogenase source and the lactate export” (Microbial Cell Factories, 2006).

Substrate: CC(=O)C(=O)O
Assay: cells, lysate or membranes
Assay type: biochemical, Lactiplantibacillus plantarum
Conditions: NADH, acetate buffer pH 5.6, 25 °C, no fructose 1,6-diphosphate, Table 2 prints 1,50

B1: L. plantarum LDH (LpLDH, plLDH) (Lactiplantibacillus plantarum WCFS1; D94G) (protein)
chain: MSSMPNHQKVVLVGDGAVGSSYAFAMAQQGIAEEFVIVDVVKDRTKGDALDLEDAQAFTAPKKIYSGEYSDCKDADLVVITAGAPQKPGESRLGLVNKNLNILSSIVKPVVDSGFDGIFLVAANPVDILTYATWKFSGFPKDRVIGSGTSLDSSRLRVALGKQFNVDPRSVDAYIMGEHGDSEFAAYSTATIGTRPVRDVAKEQGVSDEDLAKLEDGVRNKAYDIINLKGATFYGIGTALMRISKAILRDENAVLPVGAYMDGQYGLNDIYIGTPAVIGGTGLKQIIESPLSADELKKMQDSAATLKKVLNDGLAELENK
notes: full length, TTG start changed to ATG, untagged, expressed in S. cerevisiae GRF18U; crude cell extract; homotetramer
Km: 1010 µM
